The source of these data is PMC8053085, “Di-phosphorylated BAF shows altered structural dynamics and binding to DNA, but interacts with its nuclear envelope partners” (Nucleic Acids Research, 2021).

“And” between values parts separate entries of the source, which are not always exact repeats. Identical values can stand only once.

T1: IgFold domain of human lamin A/C from amino acid 411 to amino acid 566 (human, UniProt P02545 411-566)
T1 construct: human lamin A/C, residues 411-566 including the IgFold domain; Cloned into a pGEX vector; also called LamIgF; lamin A/C Igfold domain; source: E. coli BL21 DE3 Star, purified (glutathione beads, thrombin cleavage, gel filtration); 15N labelled for NMR
T1 sequence (looked up): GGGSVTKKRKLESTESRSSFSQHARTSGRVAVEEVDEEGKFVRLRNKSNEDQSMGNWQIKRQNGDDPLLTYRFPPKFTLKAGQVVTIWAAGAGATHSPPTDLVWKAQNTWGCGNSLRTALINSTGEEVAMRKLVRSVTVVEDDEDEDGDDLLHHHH

T2: Barrier-to-autointegration factor (BAF construct with the four cysteines replaced by alanines) (human, UniProt O75531 1-89, glycine as residue 1 instead of the native methionine | C67 mutated into …)
T2 sequence: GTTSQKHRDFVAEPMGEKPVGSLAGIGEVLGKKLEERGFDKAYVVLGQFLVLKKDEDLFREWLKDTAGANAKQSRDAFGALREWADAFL

T3: Di-phosphorylated BAF (BAF phosphorylated by VRK1 on Thr3 and Ser4) (human, UniProt O75531 1-89, glycine as residue 1 instead of the native methionine | C67 mutated into …, phosphothreonine at 3, phosphoserine at 4)
T3 sequence: T2 sequence

B1: Barrier-to-autointegration factor (BAF construct with the four cysteines replaced by alanines) (natural protein, human, UniProt O75531 1-89, looked up)
chain: T2 sequence
notes: human barrier-to-autointegration factor (BANF1), an 89-aa protein; residue 1 is a glycine left by the TEV site instead of the native methionine; all four cysteines mutated into alanine; also called BAF WT; non-phosphorylated BAF; not shown: His tag, N-terminal, cleaved
B2: Di-phosphorylated BAF (BAF phosphorylated by VRK1 on Thr3 and Ser4) (natural protein, human, UniProt O75531 1-89, looked up)
chain: T2 sequence
modifications: phosphothreonine at 3, phosphoserine at 4
notes: human barrier-to-autointegration factor (BANF1), an 89-aa protein; residue 1 is a glycine left by the TEV site instead of the native methionine; all four cysteines mutated into alanine; phosphorylated on Thr3 and Ser4; Same construct as m1, then phosphorylated; also called pBAF; not shown: His tag, N-terminal, cleaved
B3: LEM domain of human emerin from amino acid 1 to amino acid 46 (domain or fragment, UniProt P50402 1-46, looked up)
chain: MDNYADLSDTELTTLLRRYNIPHGPVVGSTRRLYEKKIFEYETQRR
notes: human emerin, residues 1-46 (LEM domain); also called emerin LEM domain; LEM fragment

In data set [1] the test system is BAF WT (Cys-less construct) (human). The experiment in a line: ITC. Conditions: ITC: 50 mM Tris-HCl pH 8.0, 150 mM NaCl, 15 C, 20 uM BAF in cell, DNA 200 uM (7/21 nt) or 100 uM (48 nt) in syringe; fluorescence assay buffer not given in the ….
Data set [2] relates to BAF A12T (human). Briefly: ITC. Conditions: ITC: 50 mM Tris-HCl pH 8.0, 150 mM NaCl, 15 C, 20 uM BAF in cell, DNA 200 uM (7/21 nt) or 100 uM (48 nt) in syringe; fluorescence assay buffer not given in the ….
Data set [3] relates to BAF WT (Cys-less construct) (human). The experiment in a line: fluorescence, dye-labelled coated dsDNA. The conditions noted are these: mean of 5; ITC: 50 mM Tris-HCl pH 8.0, 150 mM NaCl, 15 C, 20 uM BAF in cell, DNA 200 uM (7/21 nt) or 100 uM (48 nt) in syringe; fluorescence assay buffer not given in the ….
Data set [4] concerns pBAF (pThr3, pSer4) (human). The experiment in a line: fluorescence, dye-labelled coated dsDNA. Conditions: mean of 2; ITC: 50 mM Tris-HCl pH 8.0, 150 mM NaCl, 15 C, 20 uM BAF in cell, DNA 200 uM (7/21 nt) or 100 uM (48 nt) in syringe; fluorescence assay buffer not given in the ….
Data set [5] deals with BAF A12T (human). The experiment in a line: fluorescence, dye-labelled coated dsDNA. Conditions: mean of 4; ITC: 50 mM Tris-HCl pH 8.0, 150 mM NaCl, 15 C, 20 uM BAF in cell, DNA 200 uM (7/21 nt) or 100 uM (48 nt) in syringe; fluorescence assay buffer not given in the ….
For a further data set, the system named is BAF S4E (human). The experiment in a line: fluorescence, dye-labelled coated dsDNA. The conditions noted are these: mean of 2; ITC: 50 mM Tris-HCl pH 8.0, 150 mM NaCl, 15 C, 20 uM BAF in cell, DNA 200 uM (7/21 nt) or 100 uM (48 nt) in syringe; fluorescence assay buffer not given in the ….
Data set [6] deals with T1, IgFold domain of human lamin A/C from …. The experiment in a line: ITC; VP-ITC, 15°C; BAF or pBAF dimers at 20 μM in the cell titrated with LamIgF at 100 μM or LEM at 150 μM in the syringe; 50 mM HEPES pH 7.4, 150 mM NaCl; in duplicate. The conditions noted are these: both partners purified. (ITC needs no label: the signal is the heat of the interaction.)
In data set [7] the target is B1. The description is as above. The conditions noted are these: both partners purified.
Data set [8] has as its target B2. Described as above. The conditions noted are these: both partners purified.
Data set [9] has as its target T2, Barrier-to-autointegration factor (BAF …). Briefly: ITC.
Data set [10] concerns the target T3, Di-phosphorylated BAF (BAF …). The experiment in a line: ITC; phosphorylated BAF (pThr3, pSer4).

For orientation: Kd means a measure of binding affinity in units of concentration. Read a low Kd as a tighter complex.

As to 21 nt dsDNA, the Kd is 170 nM and 110 nM in data set [1]; 300 nM and 210 nM in the data set on BAF A12T (human) [2].
For the molecule 48 nt dsDNA (ITC), the equilibrium dissociation constant (Kd) stood at 41.1 nM in [1] and 28.8 nM in the data set with BAF A12T (human) [2].
Turning to 7 nt dsDNA, the Kd in [1] was 1000 nM and 2100 nM; with BAF A12T (human) [2], 1700 nM and 920 nM.
Regarding 48 nt dsDNA, coated, the dissociation constant (Kd) was 2.54 nM in data set [3], 10.7 µM in data set [4], 2.5 nM with BAF A12T (human) [5] and 15 µM with BAF S4E (human).
In [6], B1 returned a dissociation constant (Kd) of 4.5 ± 0.5 µM.
The molecule B2 gave a Kd in data set [6] of 4.9 ± 0.8 µM.
Take B3: the dissociation constant Kd in [7] is approximately 1000 nM; in data set [8] it was approximately 1000 nM; in [9], 1100 nM; in data set [10], 700 nM.
